Paper PMC11548041

Molecular target: T1, EpCAM (endogenous on HuCCT1 cells) (UniProt P16422)
T1 sequence: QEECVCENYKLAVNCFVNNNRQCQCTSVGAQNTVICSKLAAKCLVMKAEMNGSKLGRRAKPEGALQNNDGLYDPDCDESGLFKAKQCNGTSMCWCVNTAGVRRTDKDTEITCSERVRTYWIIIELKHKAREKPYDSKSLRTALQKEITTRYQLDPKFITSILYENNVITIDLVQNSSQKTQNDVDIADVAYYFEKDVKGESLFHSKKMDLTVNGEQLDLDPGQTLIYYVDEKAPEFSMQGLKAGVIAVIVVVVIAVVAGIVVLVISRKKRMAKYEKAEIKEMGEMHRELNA
Assay: flow cytometry on HuCCT1 cells
Conditions: Whole cells, 30 min on ice, HuCCT1 biotin block in PBS + 0.2% NaN3, 2.5 mM MgCl2, 0.1 mg/mL yeast total RNA (aptamer binding buffer not separately stated) …

| Sequence | Kd (phosphorothioate (marked * in Table 2): G*A*C*CCACGGAGGTTG*CGTCCGTG*GGGG*A*C) | Kd (phosphorothioate (marked * in Table 2): C*A*C*ACTTCTAAGAGGG*AACAGACGTCGATCTTTGCGGAACT*CCTG*C*G) |
| --- | --- | --- |
| GACCCACGGAGGTTGCGTCCGTGGGGGAC [PLD02 (B-aptamer)] | 236 nM | – |
| CACACTTCTAAGAGGGAACAGACGTCGATCTTTGCGGAACTCCTGCG [PLD01 (B-aptamer)] | – | 177 nM |
